According to the NTF2 design screens of Basanta et al. (2020):

Assay: protease stability score; higher = more stable; yeast display proteolysis, trypsin and chymotrypsin;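 also: relative to predicted unfolded state with 0 unfolded-like and 1 meaning tenfold more protease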
With “DEREEELHHMLEVLEFAFHTGDFEKLSKMFDPHVRIDVNGQELHGWKHAHEHIEDLFRKVKNIRLEFRDIRFQGDKIDIDGIMIFNGVRHEVKIITVKVNGRWLWRSINIH” the protease stability score was 2.33.
For “SEVEERFKEEMHRQFENSETGNEDEVAKYFDPDARMHIDGKEIHGRDEVKRILSEWRLTHITLRDFRIVGNKIHTDAEVVIEIGDKKIRYRVHIIQYKVNGQWRVESFEVK”, the protease stability score was 0.88.
Work on “DEEKRRSHELADLWWEMLETGDWDRTKNLMDPDTRLHIGDKEDHGMENFYRFRKDFESQFPNMRIELKSHRVQGDFFEIKGKINFNGRLVEAEIRVKIVDGRLKEIHVHIK” yielded a protease stability score of 0.821.
Sequence “TEDDRAFELSMRKWLESHRTGDEKTMHELLDPNARYHIGEFHLHGWKEADRLVREIRIHHVEDKHVEIQGDKIRIHTRVDITINGQKSSVELELVLVKVNGVWFVHSVILR” has a protease stability score of 1.8.
Work on “SEEHKWVHMAFEVLLKVLKTGDEENVNRLFDPHVRVEWDGREIHGMETFTRELSHLRFKLDDFKLHHISVAEGRAIIHGRFHGRIEYGDKEHEFDSHVILFVLKVDGRWLIKKIEFR” yielded a protease stability score of 1.83.
“STEEREVYEWVHELLNAFNTGDEDFYYERMDPHVRFESQFNGKELDIVGREKVLKWTKTFWDDLGVDHSKLRSFRIQGDKLILHMEVTINGRHIQVDFFHVIVDGKLHSEEIRIH” gave a protease stability score of 0.649.
“DHQRDLLKEARERLLHSIETGDEELWRRLFDPETLLIAENHSSHGREARHDWKKRFDVIDHLEIRTRDVDMIGDKIYVEGKLDYITKYDGVTRNYTNTVHFIATKINGRWVIESVRFE” gave a protease stability score of 1.09.
“NEDEESAERAVHLLRELIYTGDEDRMLKYADPNVKIVFNGVEMHGMDTFLRVFHRIKNLTIRRIHIDHIHLQGDKIELNVRMDTEFNGRHHDDSIHIRTLKVDGVWINHRTEYV” gave a protease stability score of 1.04.
Work on “DEEERDAKEARDLLERSMDTGNEDLWKELLDPNMIIHIGDKEIHGMKEWIEFHKERGAETRVEFKDMRMQGNKLILRLNLKVHFDGQTYEHEVTYIVSKVDGVWLVKYIHIH” yielded a protease stability score of 0.981.
With “SEEDERTYKVAKDWHEALQTGNEEIMERLLDPHVRIDVVVDGKKSHKHGMEVVSETLRRIREHLRMKWEIHRVDAQGDKLFVDGRYHIEVGDKKEHYIMHVLMIVIDGRLHSLTIRNE” the protease stability score was 1.1.
“SEDEKEAKETQSIYSHAVQTGDEHHLKELADPNVRIEINGVEYVGWEQLKDMLERFKNVRIKVSVRRVHQIGDKIHLNTELEEDVDGVRRVIDVRVIIWKINGRWRFKTFESQ” showed a protease stability score of 1.41.
With “DEESKFLTEMLEDILRALITGDEEHLQTLMDPDVRVEVGDKLFIGREQASEFWRREFEEIRIDDFRIHHLEVIDGRVHVHGRVDGTIGDKHHRREIIIHDLIVNGRIKKIRIEIH” the protease stability score was 1.31.
In the case of “TELEEDIVRAWERFVRSLETGNERSIRELMDPNPRIVIGDYEFHGREAIEELLRRIDVIKSVELRHFRLQGEKARLDTTETGHIDGRDVTYETRIISLKVNGVWVLKRIEVR”, the protease stability score was 1.53.
Work on “DEDEDTAHETWKILVHSLITGDERTMELLMDPNVQVHVGDKRHIGRERASRFHSEIRTEHVEMRTSEMQGNKVILHGRVVMRVNGKTLDHDFHLILDKIDGKWYITEIRFK” yielded a protease stability score of 0.517.
“DEEEQSERIALELLDKSINTGDERVWKEMFDPRVIMDINGVKLIGREDYRRWRERFDHEENRDFKIHHHEVQGNKVHLDVEIDLTLNFDGKRHRHIFRTEVDVIKFDGKWHIRSLIVK” gave a protease stability score of 1.18.
With “SEDEETARRIVKELLHDRLTGNEDRIRELADPDVRLIIGEFHMHGMDNFLRVLRFIYHHWRIHDTQMETHEIQGDKAYNHTIIDGEFDGKRHEWQIHILVLKVNGRWRLKTLELH” the protease stability score was 1.84.
For “SEDEKVALEMLEWLSTARRTGDEHVMRELIDPHTRLHYGDKIYIGRDHVIELLLQLRVHIHHVELTHFESVGDKIKLHTEEDGHIDIDGRHHRVIIHTTMYARKFDGQWHTEEIRIH”, the protease stability score was 1.93.
“TELEKLLKEMSDIIHHAWRTGDEHLVRNLADPNVRFHTQIDGRNDERWGREEMEKALHDWLRHFGVKHIIDKSIELQGDKITIKGHVDVDGVKIDVRIFLIVVNGKLKTMKIEHD” showed a protease stability score of 1.19.
Sequence “DEDKENAEEAIRRLMEMILTGDEDQIRHMIDPHVRVIINGRDHHGWEELLRFWKEMRIHDVKVHDIKIINGRVNSDTKIVTEIGDFRIELEAHFIFHKFDGRWRVDSVDLR” has a protease stability score of 1.18.
In the case of “SELHKHVKHLAEHFWHLLETGDWEKMTKNADPNDRLDIHIGDKDIHNHGRERSLKTWTELEREMGIDHLTLRHRDLQGDKVIIHTESVFDGRHVKVEIIVVVINGRLKRVEVRFE”, the protease stability score was 0.767.
